Test results taken from article PMC3575842.

Columns and labels:
Experiment in all cases: MITOMI saturation binding
[1] = molecular target: Gsc (Drosophila melanogaster, UniProt P54366 1-415)
[2] = molecular target: T1, z (Drosophila melanogaster, UniProt P09956 1-575)
T1 sequence: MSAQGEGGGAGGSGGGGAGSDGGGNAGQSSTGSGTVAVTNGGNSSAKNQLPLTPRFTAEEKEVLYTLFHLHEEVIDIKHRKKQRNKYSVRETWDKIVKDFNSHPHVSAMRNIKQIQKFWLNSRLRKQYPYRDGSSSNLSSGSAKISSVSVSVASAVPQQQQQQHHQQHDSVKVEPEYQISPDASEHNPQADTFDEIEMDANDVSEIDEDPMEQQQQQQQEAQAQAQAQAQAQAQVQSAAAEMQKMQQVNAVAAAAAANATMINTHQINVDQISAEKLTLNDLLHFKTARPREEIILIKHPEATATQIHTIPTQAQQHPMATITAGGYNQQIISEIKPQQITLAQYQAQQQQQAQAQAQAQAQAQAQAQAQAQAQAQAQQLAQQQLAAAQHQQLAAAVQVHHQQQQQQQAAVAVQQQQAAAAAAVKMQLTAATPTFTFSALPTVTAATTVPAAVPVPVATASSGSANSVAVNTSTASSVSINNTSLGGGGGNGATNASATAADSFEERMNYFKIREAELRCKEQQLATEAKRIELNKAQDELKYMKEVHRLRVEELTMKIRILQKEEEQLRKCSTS

[3] = molecular target: slbo (Drosophila melanogaster, UniProt Q02637 1-449)
[4] = molecular target: gooseberry-neuro (gsb-n) (Drosophila melanogaster, UniProt P09083 1-449)
[5] = molecular target: gooseberry (gsb) (Drosophila melanogaster, UniProt P09082 1-427)
[6] = molecular target: Sox21a (Drosophila melanogaster, UniProt Q9VUD1 1-388)

Chain of slbo (Q02637 whole entry): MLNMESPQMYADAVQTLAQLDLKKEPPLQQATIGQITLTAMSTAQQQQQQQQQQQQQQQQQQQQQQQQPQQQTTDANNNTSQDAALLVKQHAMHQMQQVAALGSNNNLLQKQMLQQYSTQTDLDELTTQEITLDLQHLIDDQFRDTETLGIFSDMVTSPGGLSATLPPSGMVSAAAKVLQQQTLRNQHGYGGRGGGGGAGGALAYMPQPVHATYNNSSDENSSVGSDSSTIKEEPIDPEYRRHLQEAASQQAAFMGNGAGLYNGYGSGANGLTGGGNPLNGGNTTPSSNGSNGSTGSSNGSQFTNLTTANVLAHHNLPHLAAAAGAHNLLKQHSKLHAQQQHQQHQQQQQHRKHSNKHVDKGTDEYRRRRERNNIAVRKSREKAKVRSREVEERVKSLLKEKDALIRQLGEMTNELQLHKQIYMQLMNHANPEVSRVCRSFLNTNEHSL
Chain of gooseberry-neuro (gsb-n) (P09083 whole entry): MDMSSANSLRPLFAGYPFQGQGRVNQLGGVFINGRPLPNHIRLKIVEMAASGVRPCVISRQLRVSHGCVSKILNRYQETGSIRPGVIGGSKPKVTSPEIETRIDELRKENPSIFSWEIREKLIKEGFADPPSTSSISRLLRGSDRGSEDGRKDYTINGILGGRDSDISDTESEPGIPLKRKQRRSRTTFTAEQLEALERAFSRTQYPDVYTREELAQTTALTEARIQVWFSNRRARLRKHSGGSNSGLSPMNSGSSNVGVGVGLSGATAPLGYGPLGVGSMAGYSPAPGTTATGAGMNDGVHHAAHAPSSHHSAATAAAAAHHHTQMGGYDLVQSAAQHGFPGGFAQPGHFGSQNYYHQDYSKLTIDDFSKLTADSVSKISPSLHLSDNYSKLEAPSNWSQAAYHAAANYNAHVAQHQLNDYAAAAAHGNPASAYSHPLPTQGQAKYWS
Chain of Gsc (P54366 whole entry): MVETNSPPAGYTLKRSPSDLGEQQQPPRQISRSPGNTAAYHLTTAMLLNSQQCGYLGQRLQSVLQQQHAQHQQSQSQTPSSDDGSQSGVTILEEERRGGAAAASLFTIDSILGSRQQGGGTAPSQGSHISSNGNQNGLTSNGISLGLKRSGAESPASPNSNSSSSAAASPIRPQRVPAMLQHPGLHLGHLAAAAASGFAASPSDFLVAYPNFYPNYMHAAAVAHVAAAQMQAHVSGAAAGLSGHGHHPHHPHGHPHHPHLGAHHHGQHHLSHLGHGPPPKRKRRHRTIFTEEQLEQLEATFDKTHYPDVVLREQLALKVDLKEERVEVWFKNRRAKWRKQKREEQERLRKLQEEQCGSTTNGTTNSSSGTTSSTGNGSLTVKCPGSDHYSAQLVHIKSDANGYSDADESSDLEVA
Chain of gooseberry (gsb) (P09082 whole entry): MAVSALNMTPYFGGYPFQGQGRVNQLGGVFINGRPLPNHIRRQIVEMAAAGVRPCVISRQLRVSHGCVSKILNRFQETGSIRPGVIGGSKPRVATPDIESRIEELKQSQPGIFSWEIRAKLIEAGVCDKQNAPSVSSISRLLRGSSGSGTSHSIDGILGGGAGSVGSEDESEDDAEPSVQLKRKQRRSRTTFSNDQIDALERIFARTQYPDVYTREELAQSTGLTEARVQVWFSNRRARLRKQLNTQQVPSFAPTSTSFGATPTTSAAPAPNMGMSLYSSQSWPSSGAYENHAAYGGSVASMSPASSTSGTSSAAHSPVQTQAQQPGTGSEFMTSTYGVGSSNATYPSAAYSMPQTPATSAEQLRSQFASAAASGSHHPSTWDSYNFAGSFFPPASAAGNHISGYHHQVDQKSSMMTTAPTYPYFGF

B1: bcd motif (dsDNA)
DNA 1: CGCGGATTAGCTCCGGCGGTATGAC
DNA 2: GTCATACCGCCGGAGCTAATCCGCG
[1]
  binding result: binds
[2]
  binding result: binds

B2: gt motif (dsDNA)
DNA 1: CGCATTACGTAATAACTCCGGCGGTATGAC
DNA 2: GTCATACCGCCGGAGTTATTACGTAATGCG
[3]
  binding result: binds

B3: prd motif (dsDNA)
DNA 1: CGCCCAATTTGTCACGCTCTCCGGCGGTATGAC
DNA 2: GTCATACCGCCGGAGAGCGTGACAAATTGGGCG
[4]
  binding result: binds
[2]
  binding result: binds
[5]
  binding result: binds

B4: D motif (dsDNA)
DNA 1: CGCGTCCATTGTTCTCTCCGGCGGTATGAC
DNA 2: GTCATACCGCCGGAGAGAACAATGGACGCG
[6]
  binding result: binds
